Results from patent US20250066503A1, “CELL INJURY INDUCING THERAPEUTIC DRUG FOR USE IN CANCER THERAPY” (CHUGAI SEIYAKU KABUSHIKI KAISHA, priority 2016, published 2025).
Changes are numbered by the printed parent chain. Blank lines part the entries; values can stand above or below the binder they belong to.

Target: T1, human GPC3 (human, UniProt P51654 25-563)
T1 construct: range 25-563; soluble analyte; also called soluble human GPC3; glypican 3
Experiment: SPR

T1 sequence (P51654 25-563 limits assumed): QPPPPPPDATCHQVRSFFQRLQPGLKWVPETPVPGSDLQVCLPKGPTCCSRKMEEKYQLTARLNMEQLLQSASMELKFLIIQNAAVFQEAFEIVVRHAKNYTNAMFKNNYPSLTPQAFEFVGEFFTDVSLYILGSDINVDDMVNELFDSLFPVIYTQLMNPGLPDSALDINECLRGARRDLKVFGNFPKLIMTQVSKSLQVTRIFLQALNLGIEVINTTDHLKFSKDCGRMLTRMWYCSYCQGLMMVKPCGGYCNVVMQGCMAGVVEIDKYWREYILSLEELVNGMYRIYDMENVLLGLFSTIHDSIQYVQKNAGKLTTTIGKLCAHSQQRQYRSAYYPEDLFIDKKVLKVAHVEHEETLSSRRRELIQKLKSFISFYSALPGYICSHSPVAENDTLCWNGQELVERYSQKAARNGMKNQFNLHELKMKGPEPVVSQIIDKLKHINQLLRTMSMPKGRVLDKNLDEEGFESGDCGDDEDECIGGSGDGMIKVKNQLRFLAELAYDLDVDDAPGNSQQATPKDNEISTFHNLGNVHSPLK

B1: H0610-G1dh/none-Hi-Kn010G3/L0269-k0 (antibody, V domains shown)
VH: QVQLVQSGAEVKKPGASVKVSCKASGYTFTDYEMHWIRQPPGQGLEWIGAIDGKTPDTAYSQKFKGRVTLTADKSTSTAYMELSSLTSEDTAVYYCTRFYSYTYWGQGTLVTVSS
VL: DIVMTQSPLSLPVTPGEPASISCRSSQSPVHSNRNTYIQWYQQKPGQAPRLLIYKVSNRFSGVPDRFSGSGSGTDFTLKISRVEAEDVGVYYCGQGTQVPYTFGQGTKLEIK
notes: one-arm
Kd: 0.459 nM

B2: GCH025-G1dh/none-Hi-Kn010G3/L0000-k0 (antibody, V domains shown)
VH: B1 VH with K19T, Q43E, K54E
VL: DIVMTQSPLSLPVTPGEPASISCRSSQSLVHSNRNTYLHWYQQKPGQAPRLLIYKVSNRFSGVPDRFSGSGSGTDFTLKISRVEAEDVGVYYCGQGTQVPYTFGQGTKLEIKR
notes: one-arm
Kd: 5.05 nM

B4: H0610-G1dh/none-Hi-Kn010G3/TR01L008-k0 (antibody, V domains shown)
VH: B1 VH
VL: B1 VL with R24Q, S25A, Q27E, P29L, I38L, Q39H, S61R
notes: one-arm
Kd: 3.48 nM

B6: GCH006-G1dh/none-Hi-Kn010G3/L0000-k0 (antibody, V domains shown)
VH: B1 VH with S61E
VL: B2 VL
notes: one-arm
Kd: 4.06 nM

B7: GCH013-G1dh/none-Hi-Kn010G3/L0000-k0 (antibody, V domains shown)
VH: B1 VH with K19T, S61E
VL: B2 VL
notes: one-arm
Kd: 4.44 nM

B11: H0610-G1dh/none-Hi-Kn010G3/TR01L016-k0 (antibody, V domains shown)
VH: B1 VH
VL: B1 VL with I38L, Q39H, Q42L, A48S, R50Q, G94Y
notes: one-arm
Kd: 1.08 nM

B12: H0610-G1dh/none-Hi-Kn010G3/TR01L009-k0 (antibody, V domains shown)
VH: B1 VH
VL: B1 VL with P29L, I38L, Q39H, Q42L, A48S, R50Q, S61R
notes: one-arm
Kd: 3.81 nM

B13: GCH025-G1dh/none-Hi-Kn010G3/L0204-k0 (antibody, V domains shown)
VH: B1 VH with K19T, Q43E, K54E
VL: B2 VL with L29P, S61R
notes: one-arm
Kd: 0.67 nM

B17: H0610-G1dh/none-Hi-Kn010G3/TR01L011-k0 (antibody, V domains shown)
VH: B1 VH
VL: B1 VL with R24Q, S25A, Q27E, P29L, I38L, Q39H, S61R, L109V, K112E
notes: one-arm
Kd: 4.02 nM

B18: H0610-G1dh/none-Hi-Kn010G3/TR01L012-k0 (antibody, V domains shown)
VH: B1 VH
VL: B1 VL with P29L, I38L, Q39H, Q42L, A48S, R50Q, S61R, L109V, K112E
notes: one-arm
Kd: 4.25 nM

B19: H0610-G1dh/none-Hi-Kn010G3/TR01L010-k0 (antibody, V domains shown)
VH: B1 VH
VL: B1 VL with P29L, I38L, Q39H, S61R, L109V, K112E
notes: one-arm
Kd: 2.92 nM

B22: H0610-G1dh/none-Hi-Kn010G3/TR01L005-k0 (antibody, V domains shown)
VH: B1 VH
VL: B1 VL with P29L, I38L, Q39H, Q42L, A48S, R50Q, L109V, K112E
notes: one-arm
Kd: 5.37 nM

B27: H0610-G1dh/none-Hi-Kn010G3/TR01L019-k0 (antibody, V domains shown)
VH: B1 VH
VL: B1 VL with R24Q, S25A, Q27E, I38L, Q39H, Q42L, A48S, R50Q, G94Y
notes: one-arm
Kd: 1.15 nM

B31: GCH023-G1dh/none-Hi-Kn010G3/L0000-k0 (antibody, V domains shown)
VH: B1 VH with Q43E, K54E
VL: B2 VL
notes: one-arm
Kd: 4.94 nM

B32: GCH022-G1dh/none-Hi-Kn010G3/L0000-k0 (antibody, V domains shown)
VH: B1 VH with K19T, K54E
VL: B2 VL
notes: one-arm
Kd: 4.92 nM

Results, then the binder that gave them:

Kd: 5.01 nM
B3: GCH029-G1dh/none-Hi-Kn010G3/L0000-k0 (antibody, V domains shown)
VH: B1 VH with T30E
VL: B2 VL
notes: one-arm

Kd: 5.17 nM
B5: GCH026-G1dh/none-Hi-Kn010G3/L0000-k0 (antibody, V domains shown)
VH: B1 VH with K54E, Q62E, K63S
VL: B2 VL
notes: one-arm

Kd: 4.59 nM
B8: GCH016-G1dh/none-Hi-Kn010G3/L0000-k0 (antibody, V domains shown)
VH: B1 VH with S61E, K65Q, G66D
VL: B2 VL
notes: one-arm

Kd: 2.17 nM
B9: H0610-G1dh/none-Hi-Kn010G3/TR01L018-k0 (antibody, V domains shown)
VH: B1 VH
VL: B1 VL with R24Q, S25A, Q27E, I38L, Q39H, Q42L, A48S, R50Q
notes: one-arm

Kd: 5.2 nM
B10: GCH003-G1dh/none-Hi-Kn010G3/L0000-k0 (antibody, V domains shown)
VH: B1 VH with K54D
VL: B2 VL
notes: one-arm

Kd: 4.12 nM
B14: GCH010-G1dh/none-Hi-Kn010G3/L0000-k0 (antibody, V domains shown)
VH: B1 VH with K54D, S61E
VL: B2 VL
notes: one-arm

Kd: 4.93 nM
B15: GCH007-G1dh/none-Hi-Kn010G3/L0000-k0 (antibody, V domains shown)
VH: B1 VH with Q62D
VL: B2 VL
notes: one-arm

Kd: 0.00827 nM
B16: H0610-G1dh/none-Hi-Kn010G3/TR01L017-k0 (antibody, V domains shown)
VH: B1 VH
VL: B1 VL with Q42L, A48S, R50Q, G94Y
notes: one-arm

Kd: 3.83 nM
B20: GCH027-G1dh/none-Hi-Kn010G3/L0000-k0 (antibody, V domains shown)
VH: B1 VH with T28E
VL: B2 VL
notes: one-arm

Kd: 5.32 nM
B21: GCH005-G1dh/none-Hi-Kn010G3/L0000-k0 (antibody, V domains shown)
VH: B1 VH with Y60E
VL: B2 VL
notes: one-arm

Kd: 4.36 nM
B23: GCH019-G1dh/none-Hi-Kn010G3/L0000-k0 (antibody, V domains shown)
VH: B1 VH with K19T, Q43E, S61E
VL: B2 VL
notes: one-arm

Kd: 4.2 nM
B24: GCH014-G1dh/none-Hi-Kn010G3/L0000-k0 (antibody, V domains shown)
VH: B1 VH with Q43E, S61E
VL: B2 VL
notes: one-arm

Kd: 5.08 nM
B25: H0610-G1dh/none-Hi-Kn010G3/TR01L003-k0 (antibody, V domains shown)
VH: B1 VH
VL: B1 VL with P29L, I38L, Q39H, L109V, K112E
notes: one-arm

Kd: 5.4 nM
B26: GCH012-G1dh/none-Hi-Kn010G3/L0000-k0 (antibody, V domains shown)
VH: B1 VH with Y60E, S61E
VL: B2 VL
notes: one-arm

Kd: 5.74 nM
B28: GCH032-G1dh/none-Hi-Kn010G3/L0000-k0 (antibody, V domains shown)
VH: B1 VH with Q62E
VL: B2 VL
notes: one-arm

Kd: 0.0224 nM
B29: H0610-G1dh/none-Hi-Kn010G3/TR01L020-k0 (antibody, V domains shown)
VH: B1 VH
VL: B1 VL with R24Q, S25A, Q27E, Q42L, A48S, R50Q, G94Y
notes: one-arm

Kd: 2.16 nM
B30: H0610-G1dh/none-Hi-Kn010G3/TR01L015-k0 (antibody, V domains shown)
VH: B1 VH
VL: B1 VL with I38L, Q39H, Q42L, A48S, R50Q
notes: one-arm

Kd: 4.14 nM
B33: GCH015-G1dh/none-Hi-Kn010G3/L0000-k0 (antibody, V domains shown)
VH: B1 VH with S61E, Q62E, K63S
VL: B2 VL
notes: one-arm

Kd: 5.55 nM
B34: GCH008-G1dh/none-Hi-Kn010G3/L0000-k0 (antibody, V domains shown)
VH: B1 VH with K54E
VL: B2 VL
notes: one-arm
